The results in this text go back to publication PMC7610862 (Nature microbiology, 2021).

The chains are these.
T1: FliP (Salmonella enterica serovar Typhimurium, UniProt P54700 22-245)
T1 sequence (looked up): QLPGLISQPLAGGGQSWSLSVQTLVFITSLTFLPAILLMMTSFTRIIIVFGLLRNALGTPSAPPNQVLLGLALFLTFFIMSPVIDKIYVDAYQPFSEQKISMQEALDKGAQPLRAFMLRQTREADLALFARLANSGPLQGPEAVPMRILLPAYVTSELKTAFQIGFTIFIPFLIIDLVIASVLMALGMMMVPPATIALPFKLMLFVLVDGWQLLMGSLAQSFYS

B1: FlgI (natural protein, Salmonella enterica serovar Typhimurium, UniProt P15930 20-365, looked up)
chain: ERIRDLTSVQGVRENSLIGYGLVVGLDGTGDQTTQTPFTTQTLNNMLSQLGITVPTGTNMQLKNVAAVMVTASYPPFARQGQTIDVVVSSMGNAKSLRGGTLLMTPLKGVDSQVYALAQGNILVGGAGASAGGSSVQVNQLNGGRITNGAIIERELPTQFGAGNTINLQLNDEDFTMAQQITDAINRARGYGSATALDARTVQVRVPSGNSSQVRFLADIQNMEVNVTPQDAKVVINSRTGSVVMNREVTLDSCAVAQGNLSVTVNRQLNVNQPNTPFGGGQTVVTPQTQIDLRQSGGSLQSVRSSANLNSVVRALNALGATPMDLMSILQSMQSAGCLRAKLEII
B2: FliF (natural protein, Salmonella enterica serovar Typhimurium, UniProt P15928 1-560, looked up)
chain: MSATASTATQPKPLEWLNRLRANPRIPLIVAGSAAVAIVVAMVLWAKTPDYRTLFSNLSDQDGGAIVAQLTQMNIPYRFANGSGAIEVPADKVHELRLRLAQQGLPKGGAVGFELLDQEKFGISQFSEQVNYQRALEGELARTIETLGPVKSARVHLAMPKPSLFVREQKSPSASVTVTLEPGRALDEGQISAVVHLVSSAVAGLPPGNVTLVDQSGHLLTQSNTSGRDLNDAQLKFANDVESRIQRRIEAILSPIVGNGNVHAQVTAQLDFANKEQTEEHYSPNGDASKATLRSRQLNISEQVGAGYPGGVPGALSNQPAPPNEAPIATPPTNQQNAQNTPQTSTSTNSNSAGPRSTQRNETSNYEVDRTIRHTKMNVGDIERLSVAVVVNYKTLADGKPLPLTADQMKQIEDLTREAMGFSDKRGDTLNVVNSPFSAVDNTGGELPFWQQQSFIDQLLAAGRWLLVLVVAWILWRKAVRPQLTRRVEEAKAAQEQAQVRQETEEAVEVRLSKDEQLQQRRANQRLGAEVMSQRIREMSDNDPRVVALVIRQWMSNDHE
B3: FlgF (natural protein, Salmonella enterica serovar Typhimurium, UniProt P16323 1-251, looked up)
chain: MDHAIYTAMGAASQTLNQQAVTASNLANASTPGFRAQLNALRAVPVDGLSLATRTLVTASTPGADMTPGQLDYTSRPLDVALQQDGWLVVQAADGAEGYTRNGNIQVGPTGQLTIQGHPVIGEGGPITVPEGSEITIAADGTISALNPGDPPNTVAPVGRLKLVKAEGNEVQRSDDGLFRLTAEAQAERGAVLAADPSIRIMSGVLEGSNVKPVEAMTDMIANARRFEMQMKVITSVDENEGRANQLLSMS
B4: FliE (natural protein, Salmonella enterica serovar Typhimurium, UniProt P26462 1-104, looked up)
chain: MAAIQGIEGVISQLQATAMAARGQDTHSQSTVSFAGQLHAALDRISDRQAAARVQAEKFTLGEPGIALNDVMADMQKASVSMQMGIQVRNKLVAAYQEVMSMQV
B5: FlgG (natural protein, Salmonella enterica serovar Typhimurium, UniProt P0A1J3 1-260, looked up)
chain: MISSLWIAKTGLDAQQTNMDVIANNLANVSTNGFKRQRAVFEDLLYQTIRQPGAQSSEQTTLPSGLQIGTGVRPVATERLHSQGNLSQTNNSKDVAIKGQGFFQVMLPDGTSAYTRDGSFQVDQNGQLVTAGGFQVQPAITIPANALSITIGRDGVVSVTQQGQAAPVQVGQLNLTTFMNDTGLESIGENLYIETQSSGAPNESTPGLNGAGLLYQGYVETSNVNVAEELVNMIQVQRAYEINSKAVSTTDQMLQKLTQL
B6: FlgB (natural protein, Salmonella enterica serovar Typhimurium, UniProt P16437 1-138, looked up)
chain: MLDRLDAALRFQQEALNLRAQRQEILAANIANADTPGYQARDIDFASELKKVMVRGREETGGVALTLTSSHHIPAQAVSSPAVDLLYRVPDQPSLDGNTVDMDRERTQFADNSLKYQMGLTVLGSQLKGMMNVLQGGN
B7: FlgD (natural protein, Salmonella enterica serovar Typhimurium, UniProt P0A1I9 1-232, looked up)
chain: MSIAVNMNDPTNTGVKTTTGSGSMTGSNAADLQSSFLTLLVAQLKNQDPTNPLQNNELTTQLAQISTVSGIEKLNTTLGAISGQIDNSQSLQATTLIGHGVMVPGTTILAGKGAEEGAVTSTTPFGVELQQPADKVTATITDKDGRVVRTLEIGELRAGVHTFTWDGKQTDGTTVPNGSYNIAITASNGGTQLVAQPLQFALVQGVTKGSNGNLLDLGTYGTTTLDEVRQII
B8: FlgH (natural protein, Salmonella enterica serovar Typhimurium, UniProt P0A1N8 22-232, looked up)
chain: CAWIPAKPLVQGATTAQPIPGPVPVANGSIFQSAQPINYGYQPLFEDRRPRNIGDTLTIVLQENVSASKSSSANASRDGKTSFGFDTVPRYLQGLFGNSRADMEASGGNSFNGKGGANASNTFSGTLTVTVDQVLANGNLHVVGEKQIAINQGTEFIRFSGVVNPRTISGSNSVPSTQVADARIEYVGNGYINEAQNMGWLQRFFLNLSPM
modifications: lipidated N-terminal Cys (3 lipid moieties; diacylglycerol attached to the sidechain)
B9: FlgC (natural protein, Salmonella enterica serovar Typhimurium, UniProt P0A1I7 1-134, looked up)
chain: MALLNIFDIAGSALAAQSKRLNVAASNLANADSVTGPDGQPYRAKQVVFQVDAAPGQATGGVKVASVIESQAPEKLVYEPGNPLADANGYVKMPNVDVVGEMVNTMSASRSYQANIEVLNTVKSMMLKTLTLGQ

Holding throughout (test): cryo-EM structure
The data set “cryo-EM structure” deals with the molecule itself.
The data set “FliF” concerns the target B2.
The data set “FlgG” addresses B5.
The data set “FlgB” addresses B6.
The target of a further data set is T1, FliP.
The data set “FlgI” concerns the target B1.
The target of the data set “FlgF” is B3.

As usually defined, the stoichiometry N is a count of units in the complex or per binding partner. Regarding B1, the “stoichiometry N” value in “cryo-EM structure” is 26 copies.

With B2, the “stoichiometry N” value in “cryo-EM structure” was 34.

With B3, the binding result with FliF and with FlgG was “binds” each time. The “stoichiometry N” value in the data set “cryo-EM structure” is 5 copies.

B4: the binding result with FlgB and in the data set with FliP was “binds” each time.

Regarding B5, the binding result with FlgI is on record as “binds”. Further, the “stoichiometry N” value in the data set “cryo-EM structure” turned out to be 24 copies.

As for B6, the binding result in the data set with FliF was “binds”. Besides, the “stoichiometry N” value in the data set “cryo-EM structure” turned out to be 5 copies.

For the molecule B7, the binding result with FlgG is listed as “binds”. In addition, the “stoichiometry N” value in the data set “cryo-EM structure” is 5.

As to B8, the binding result with FlgI is recorded as “binds”. For the same molecule, the “stoichiometry N” value in “cryo-EM structure” came out at 26 copies.

Consider B9, for which the binding result with FlgB, in the data set with FliF and with FlgF was “binds” each time. The “stoichiometry N” value in “cryo-EM structure” worked out at 6 copies.
